The target of assay [1] is S. aureus PitR with amino terminal histidine tag (pETphoU2_6xHN) (S. aureus Mu50). The assay can be described thus: SEC; HiPrep 16/60 Sephacryl S-200 HR, 50 mM NaPO4, 150 mM NaCl pH 7.0, 0.5 mL/min; elution volume compared with volumes calculated from protein standards; loaded immediately after Ni purification.
Assay [2] has as its target S. aureus PhoU with amino terminal histidine tag (pETphoU1_6xHN) (S. aureus Mu50). Described as above.

Stoichiometry N data for two substances are collected here from paper PMC11705898.

Take “S. aureus PitR with amino terminal histidine tag (pETphoU2_6xHN) (natural protein)”: in assay [1], the stoichiometry N is 2.

As for “S. aureus PhoU with amino terminal histidine tag (pETphoU1_6xHN) (natural protein)”, the stoichiometry N in assay [2] was 2.

Usually stoichiometry N stands for the number of molecules, sites or subunits per partner or assembly.
